Experimental data reported in the supplement of paper PMC10126150.
± gives the standard deviation of the averaged measurements.

System: ATP
Experiment: switch fluorescence ratio, 500 uM ATP over buffer (Cy3 cluster intensity, sum of 5 cycles each) (fold (ratio)); higher = stronger signal-on switching upon ATP binding; sequences stand for … in TCGTCGGCAGCGTCAGATGTGTATAAGAGACAGTTTTTTTTTTTTTTTTTTTTTTTTT…TC
Conditions: aptamer strand: ATP DNA aptamer (quencher-CACCTGGGGGAGTATTGCGGAGGAAGG + anchor), 100 nM annealed; ATP concentration: 500 uM
Summary of the method: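 Clusters carrying Cy3-labelled switching strands on a modified Illumina MiSeq flow-cell were annealed to 100 nM quencher-labelled ATP aptamer and imaged in selection buffer. They were imaged again after 15 min with 500 uM ATP at 22 °C, over five buffer/ATP cycles with NaOH stripping and re-annealing in between. For each cluster, the fluorescence ratio is the summed Cy3 intensity of the target cycles divided by that of the buffer cycles, averaged per switch-domain sequence. Clusters outside 100-1000 RFU were left out.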
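Note: ATP exposure 15 min at 22 °C before imaging.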

| Sequence | switch fluorescence ratio |
| --- | --- |
| TGAGAAATTA | 1.05 ± 0.014 |
| TGAGAAGTTG | 1.01 ± 0.066 |
| TGAGAATGGG | 0.995 ± 0.044 |
| TGAGAATTTA | 0.9935 ± 0.0019 |
| TGAGACTAGT | 0.989 ± 0.023 |
| TGAGAGGAGT | 0.9911 ± 0.0013 |
| TGAGAGTTAA | 0.961 ± 0.036 |
| TGAGAGTTTG | 0.987 ± 0.017 |
| TGAGATACAT | 1.13 ± 0.1 |
| TGAGATGGGG | 0.99 ± 0.021 |
| TGAGATTCCT | 1.09 ± 0.034 |
| TGAGCATGGG | 1 ± 0.029 |
| TGAGCCGGGT | 1.02 ± 0.033 |
| TGAGCCTCGG | 0.965 ± 0.032 |
| TGAGCGGGAA | 1.01 ± 0.02 |
| TGAGCGGGTA | 1.024 ± 0.0052 |
| TGAGCTGCGT | 1.01 ± 0.022 |
| TGAGGAACCT | 1.77 ± 0.098 |
| TGAGGATGGA | 0.975 ± 0.044 |
| TGAGGATGTT | 0.9852 ± 0.0089 |
| TGAGGCAGGG | 1.037 ± 0.0042 |
| TGAGGCGCGG | 0.97 ± 0.025 |
| TGAGGCTGTT | 1 ± 0.031 |
| TGAGGGAGGC | 1.06 ± 0.06 |
| TGAGGGATGC | 0.968 ± 0.029 |
| TGAGGGCGTG | 1.01 ± 0.014 |

| Sequence | switch fluorescence ratio |
| --- | --- |
| TGAGGGGCGA | 0.989 ± 0.028 |
| TGAGGGGGAG | 1.01 ± 0.04 |
| TGAGGGGGGA | 1 ± 0.036 |
| TGAGGGTCCT | 1.02 ± 0.01 |
| TGAGGGTTTT | 0.997 ± 0.02 |
| TGAGGTACCG | 1.0235 ± 0.00091 |
| TGAGGTCAAA | 1.07 ± 0.041 |
| TGAGGTTTGT | 0.98 ± 0.028 |
| TGAGGTTTTC | 1.02 ± 0.048 |
| TGAGGTTTTT | 1.28 ± 0.59 |
| TGAGTACCGG | 1.08 ± 0.1 |
| TGAGTATATA | 1.02 ± 0.014 |
| TGAGTATGGG | 0.973 ± 0.019 |
| TGAGTCATAC | 1.05 ± 0.033 |
| TGAGTCGAGC | 1.014 ± 0.0066 |
| TGAGTCTAGG | 0.9979 ± 0.0026 |
| TGAGTCTGCT | 0.998 ± 0.087 |
| TGAGTGAGGT | 0.959 ± 0.016 |
| TGAGTGCCGG | 1.18 ± 0.25 |
| TGAGTGGCTC | 0.9793 ± 0.0053 |
| TGAGTGTCTG | 0.966 ± 0.019 |
| TGAGTGTGCT | 0.972 ± 0.011 |
| TGAGTGTTTT | 0.997 ± 0.027 |
| TGAGTTAGAT | 1 ± 0.011 |
| TGAGTTCGAA | 1 ± 0.028 |
| TGAGTTTGGC | 0.9862 ± 0.0013 |

| Sequence | switch fluorescence ratio |
| --- | --- |
| TGATAAAGGT | 0.997 ± 0.015 |
| TGATAATAGA | 0.9953 ± 0.0011 |
| TGATAATATT | 0.992 ± 0.011 |
| TGATAATCGG | 0.997 ± 0.036 |
| TGATACAAGC | 1.05 ± 0.032 |
| TGATACCTGT | 0.975 ± 0.068 |
| TGATAGAGCC | 1.01 ± 0.023 |
| TGATAGGACA | 0.983 ± 0.023 |
| TGATAGGTGC | 1.19 ± 0.014 |
| TGATATAGTG | 1.002 ± 0.01 |
| TGATATATGG | 0.9872 ± 0.0081 |
| TGATATCACT | 0.996 ± 0.043 |
| TGATCACTAT | 1.007 ± 0.0076 |
| TGATCGCTGG | 1.02 ± 0.042 |
| TGATGAATTG | 1.04 ± 0.002 |
| TGATGAGGAA | 0.97725 ± 0.00082 |
| TGATGCAATT | 1.36 ± 0.24 |
| TGATGCATAT | 1.1411 ± 0.0011 |
| TGATGCTTTG | 0.998 ± 0.051 |
| TGATGGAAGG | 0.958 ± 0.06 |
| TGATGGAAGT | 0.986 ± 0.031 |
| TGATGGATTG | 0.99 ± 0.028 |
| TGATGGGATG | 1.01 ± 0.038 |
| TGATGGGCGC | 1.026 ± 0.0036 |
| TGATGGGGCA | 1.02 ± 0.021 |
